The results in this text go back to patent US10234460B2, “Macrocyclic peptide, method for producing same, and screening method using macrocyclic peptide library” (The University of Tokyo, priority 2013, dated 2019).

For one test, the target named is T1, PAD4 (Homo sapiens, UniProt Q9UM07).
T1 construct: purchased Modiquest Research MQ 16.206-10
The experiment in a line: In vitro PAD4 inhibition assay, colorimetric analysis with COLDER solution, substrate BAEE. In kind it is biochemical. The conditions noted are these: peptide 0 μM to 50 μM, PAD4 0.2 μM, BAEE 10 mM; for PAD4 inhibition, dose dependence / PAD4 inhibitory activity compared with the existing PAD4 inhibitor: initial data. As for the experimental part: Human PAD4 was purchased from Modiquest Research (catalog no. MQ 16.206-10). Human PAD4 is a protein having NCBI accession no. CCDS180.1, a molecular weight of 74.08 kDa, and 663 amino acids.
PAD4 inhibition assay was performed using various concentrations of VB peptides in a reaction buffer containing 100 mM HEPES (pH 7.6) and 50 mM NaCl.
Before reaction was initiated by adding BAEE (final concentration: 10 mM), the above reaction mixture was incubated with PAD4 (0.2 μM) (in the presence of 5 mM CaCl2) at 37° C. for 15 minutes. After reaction for 30 minutes, the reaction was terminated by flash freezing in liquid nitrogen. For color development, 200 μL of a freshly prepared COLDER solution (2.25 M H3PO4, 4.5 M H2SO4, 1.5 mM NH4Fe(SO4), 20 mM diacetyl monoxime, and 1.5 mM thiosemicarbazide) was added to each of the reaction terminated solutions. The resulting mixture was vortexed to ensure complete mixing and then, incubated at 95° C. for 30 minutes (Firestein, G. S., 2003, Nature, 423(6937), 356-61; Jones, J. E., et al., ACS chemical biology, 7(1), 160-5). The absorbance at 540 nm was measured. Compared with a standard curve of Cit, the concentration of Cit produced during the reaction was determined.

In a further test the test system is HeLa cells. The test is described as follows: Intracellular introduction of fluorescently labeled peptides into living HeLa cells, confocal microscope. The class given is cell-based. As to conditions: 37° C., 60 minutes. On the procedure:
HeLa cells proliferated on a 90-mm plate until they reached sub-confluence and Trypsin/EDTA were treated at 37° C. for […] to release the cells from the plate. A culture dish (Iwaki) having a 35-mm glass bottom was seeded with 1×10^4 cells. […] The latter ones were used for confirming cell integrity. The intracellular distribution of the fluorescently labeled peptide was analyzed using a Leica TCS SP2 microscope equipped with an N PLAN 40× objective lens, without washing and immobilization. The HeLa cells were incubated with the fluorescently labeled peptides, at 37° C. for 60 minutes. […], they were observed under a confocal fluorescence microscope. All the assays were performed using a small dish with a glass bottom so that not a sample having the cells mounted thereon but a sample in a buffer was observed. DRAQ7 (3 μM) is a far-red fluorescent dye and it dyes only the nuclei of permeable dead cells. When the peptides are incubated, this DRAQ7 is added to find whether the cells are alive or not.

Bridge positions count the residues as written; N and C are the ends. Square brackets hold non-standard residues; d marks the D form. Ends that are not written are not given here. * marks the point of attachment. chloroacetamidine = chloroacetamidine warhead on ornithine δ-NH2, N=C(CCl)*; Ahp(2) = CCCCC[C@H](N)C(=O)O; Orn = NCCC[C@H](N)C(=O)O

T1 sequence (Q9UM07 whole entry): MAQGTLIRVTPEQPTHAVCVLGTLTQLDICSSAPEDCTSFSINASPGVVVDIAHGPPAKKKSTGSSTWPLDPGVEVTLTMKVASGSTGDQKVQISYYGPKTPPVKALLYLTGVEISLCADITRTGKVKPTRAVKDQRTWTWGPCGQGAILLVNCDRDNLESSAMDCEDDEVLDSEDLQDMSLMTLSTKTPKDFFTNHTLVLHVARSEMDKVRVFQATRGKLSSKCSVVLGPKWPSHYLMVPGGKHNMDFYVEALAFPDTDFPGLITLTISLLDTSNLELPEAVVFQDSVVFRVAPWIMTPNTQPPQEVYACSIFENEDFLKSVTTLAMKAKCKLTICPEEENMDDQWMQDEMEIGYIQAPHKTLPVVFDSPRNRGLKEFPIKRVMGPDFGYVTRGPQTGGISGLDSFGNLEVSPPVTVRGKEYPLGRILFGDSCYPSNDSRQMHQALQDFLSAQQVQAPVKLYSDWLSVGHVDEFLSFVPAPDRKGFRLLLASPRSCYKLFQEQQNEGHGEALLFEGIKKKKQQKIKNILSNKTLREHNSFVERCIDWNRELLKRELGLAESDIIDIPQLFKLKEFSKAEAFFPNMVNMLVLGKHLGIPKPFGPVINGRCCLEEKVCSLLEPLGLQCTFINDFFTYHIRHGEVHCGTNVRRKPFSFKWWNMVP

Take “^ClAc-D-F-D-A-Ahep-Y-P-F-R-P-P-Ahep-A-H-C (Ac-[dF]DA[Ahp(2)]YPFRPP[Ahp(2)]AHC; bridge N-14; not fully specified (C-terminus, bridges); printed as ClAc-D-F-D-A-Ahep-Y-P-F-R-P-P-Ahep-A-H-C) [VB1C20]”: in the test with PAD4, the “PAD4 inhibition, dose dependence” value is recorded as “dose-dependently inhibit PAD4” and the “PAD4 inhibitory activity compared with the existing PAD4 inhibitor” value is reported as “not stronger than that of the existing PAD4 inhibitor”. In addition, the “concentration necessary for incorporation in HeLa cells” value in the test with HeLa cells is “at least 10 μM”.
For the substance “VB1C12-Cl-amidine analog: VB1C12 peptide with a haloacetamidine warhead introduced by modifying the Arg residue (ornithine δNH2 chloroacetamidine) (Ac-[dF]NA[Ahp(2)]YPY[Orn](chloroacetamidine)PP[Ahp(2)]TSC; bridge N-14; not fully specified (C-terminus, bridges))”, the “PAD4 inhibitory ability relative to Cl-amidine and VB1C12 peptide” value in the test with PAD4 is listed as 2.7 times.
“^ClAc-D-F-N-A-Ahep-Y-P-Y-R-P-P-Ahep-T-S-C ({CH2CO}-[dF]NA[Ahp(2)]YPYRPP[Ahp(2)]TSC-NH2; thioether N-14; SMILES CCCCC[C@@H]1NC(=O)[C@H](C)NC(=O)[C@H](CC(N)=O)NC(=O)[C@@H](Cc2ccccc2)NC(=O)CSC[C@@H](C(N)=O)NC(=O)[C@H](CO)NC(=O)[C@H]([C@@H](C)O)NC(=O)[C@H](CCCCC)NC(=O)[C@@H]2CCCN2C(=O)[C@@H]2CCCN2C(=O)[C@H](CCCNC(=N)N)NC(=O)[C@H](Cc2ccc(O)cc2)NC(=O)[C@@H]2CCCN2C(=O)[C@H](Cc2ccc(O)cc2)NC1=O) [VB1C12]”: in the test with PAD4, the “PAD4 inhibition, dose dependence” value is “dose-dependently inhibit PAD4” and the “PAD4 inhibitory activity compared with the existing PAD4 inhibitor” value is listed as “not stronger than that of the existing PAD4 inhibitor”.
